Experimental data published in patent US20110046056A1, “APOA-1 PEPTIDE MIMETICS” (priority 2007, published 2011).
*1 amine or outer side, *2 acyl side, *3 side chain or, on linkers, in order; H or OH if unused. Bridges are numbered along the chain shown (N, C = ends). Where no end group is shown, it is not given here. [ ]: non-standard residue; d: D form. dStyrA = (R)-styryl-alanine, (D)-StyrA, O=C([C@@H](C/C=C/c1ccccc1)N[*:1])[*:2]; S6H = (2S)-2-aminooct-7-enoic acid, C=CCCCC[C@H](N[*:1])C(=O)[*:2]; S7H3 = (2S)-2-aminononanoic acid, CCCCCCC[C@H](N[*:1])C(=O)[*:2]; Leu(5,5,5,5',5',5'-F6) = N[C@@H](CC(C(F)(F)F)C(F)(F)F)C(=O)O; dNle(6-ylidene) = O=C([C@@H](CCCC=[*:3])N[*:1])[*:2]; Ala(E-styryl) = N[C@@H](C/C=C/c1ccccc1)C(=O)O; Gly(oct-7-en-1-yl) = C=CCCCCCC[C@H](N)C(=O)O; dGly(6-heptenyl) = C=CCCCCC[C@@H](N)C(=O)O; Ala(5-hexenyl) = C=CCCCCC[C@H](N)C(=O)O; Gla = N[C@@H](CC(C(=O)O)C(=O)O)C(=O)O; S8H3 = not defined here; R5H = not defined here; Aib = CC(C)(N)C(=O)O

Target: ATP-binding cassette transporter A1 (ABCA1) (mouse, UniProt P41233 1-2261)
Assay: cell-based or functional assay

ATP-binding cassette transporter A1 (ABCA1), sequence (P41233 whole entry): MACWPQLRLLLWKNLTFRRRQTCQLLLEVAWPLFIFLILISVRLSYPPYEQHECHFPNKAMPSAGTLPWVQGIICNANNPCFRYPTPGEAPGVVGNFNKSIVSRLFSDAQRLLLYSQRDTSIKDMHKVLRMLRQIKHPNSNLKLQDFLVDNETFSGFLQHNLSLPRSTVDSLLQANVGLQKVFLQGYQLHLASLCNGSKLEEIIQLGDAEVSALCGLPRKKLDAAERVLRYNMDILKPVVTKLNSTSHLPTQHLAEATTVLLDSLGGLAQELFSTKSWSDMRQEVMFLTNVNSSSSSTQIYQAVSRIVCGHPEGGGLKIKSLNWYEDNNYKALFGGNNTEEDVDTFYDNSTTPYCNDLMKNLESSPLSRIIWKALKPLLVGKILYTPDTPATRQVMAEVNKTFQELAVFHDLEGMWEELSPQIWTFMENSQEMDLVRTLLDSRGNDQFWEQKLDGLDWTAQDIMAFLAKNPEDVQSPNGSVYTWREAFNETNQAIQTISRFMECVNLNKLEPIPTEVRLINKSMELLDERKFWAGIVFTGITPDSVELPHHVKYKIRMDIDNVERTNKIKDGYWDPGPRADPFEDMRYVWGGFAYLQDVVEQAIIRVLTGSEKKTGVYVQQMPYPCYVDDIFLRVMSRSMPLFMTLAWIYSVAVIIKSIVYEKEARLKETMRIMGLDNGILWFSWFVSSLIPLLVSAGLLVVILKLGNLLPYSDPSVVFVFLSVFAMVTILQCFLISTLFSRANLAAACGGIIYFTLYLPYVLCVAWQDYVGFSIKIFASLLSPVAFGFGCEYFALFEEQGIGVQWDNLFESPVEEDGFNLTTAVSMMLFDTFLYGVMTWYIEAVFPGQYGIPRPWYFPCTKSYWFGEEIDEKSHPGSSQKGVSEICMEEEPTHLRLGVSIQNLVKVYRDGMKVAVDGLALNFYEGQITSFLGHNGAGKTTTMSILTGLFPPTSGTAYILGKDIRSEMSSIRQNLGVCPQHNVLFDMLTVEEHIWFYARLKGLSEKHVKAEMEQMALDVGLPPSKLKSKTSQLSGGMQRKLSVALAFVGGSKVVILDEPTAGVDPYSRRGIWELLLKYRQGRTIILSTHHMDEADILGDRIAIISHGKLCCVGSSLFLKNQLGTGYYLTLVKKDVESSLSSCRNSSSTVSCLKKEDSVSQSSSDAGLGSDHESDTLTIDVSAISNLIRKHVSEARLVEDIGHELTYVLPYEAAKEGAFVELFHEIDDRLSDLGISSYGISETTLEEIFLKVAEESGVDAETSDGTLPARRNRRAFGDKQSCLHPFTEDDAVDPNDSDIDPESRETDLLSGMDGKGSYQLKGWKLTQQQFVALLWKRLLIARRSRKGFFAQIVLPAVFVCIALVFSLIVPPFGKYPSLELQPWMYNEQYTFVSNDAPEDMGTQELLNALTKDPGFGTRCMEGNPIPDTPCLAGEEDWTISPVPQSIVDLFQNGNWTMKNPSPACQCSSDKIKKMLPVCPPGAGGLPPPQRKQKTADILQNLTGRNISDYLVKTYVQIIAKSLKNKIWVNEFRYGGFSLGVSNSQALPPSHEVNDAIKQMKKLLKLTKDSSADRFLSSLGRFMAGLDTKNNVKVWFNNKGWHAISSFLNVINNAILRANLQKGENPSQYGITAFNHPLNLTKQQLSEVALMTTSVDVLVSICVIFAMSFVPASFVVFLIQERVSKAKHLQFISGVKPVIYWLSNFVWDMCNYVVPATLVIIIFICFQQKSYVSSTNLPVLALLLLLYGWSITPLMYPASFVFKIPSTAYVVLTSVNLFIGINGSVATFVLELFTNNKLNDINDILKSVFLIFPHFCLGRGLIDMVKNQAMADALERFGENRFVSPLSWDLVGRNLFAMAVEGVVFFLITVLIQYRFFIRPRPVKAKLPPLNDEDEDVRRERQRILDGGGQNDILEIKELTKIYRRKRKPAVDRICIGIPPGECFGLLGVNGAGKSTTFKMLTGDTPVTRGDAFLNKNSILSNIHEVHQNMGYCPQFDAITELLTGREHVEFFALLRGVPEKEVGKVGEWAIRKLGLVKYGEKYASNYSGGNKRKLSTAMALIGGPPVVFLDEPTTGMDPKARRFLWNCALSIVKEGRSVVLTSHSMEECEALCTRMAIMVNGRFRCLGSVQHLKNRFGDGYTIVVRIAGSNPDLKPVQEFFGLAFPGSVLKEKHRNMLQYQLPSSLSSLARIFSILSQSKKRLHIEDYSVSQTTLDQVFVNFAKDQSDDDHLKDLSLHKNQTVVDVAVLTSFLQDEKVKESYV

| Binder | ABCA1-dependent cholesterol efflux EC50 [nM] | also measured |
| --- | --- | --- |
| Ac-PVLDEFREKLNE[Ala(5-hexenyl)]LEALKQ[Ala(5-hexenyl)]LK [CONS[S7H^13,20]] | 600 |  |
| Ac-PVLDEFREKLNE[S8H3]LEALKQKLK (reading uncertain) [CONS[S8H3^13]] | 300 |  |
| Ac-P[Ala(5-hexenyl)]LDE[dGly(6-heptenyl)]REKLNE[Ala(5-hexenyl)]LEALKQKLK (not fully specified (C-terminus)) [CONS[R7H^6, S7H^2,13]] | 200 |  |
| Ac-PVLDEFREKLNEELEALKQ[S6H]LK (not fully specified (C-terminus); printed as PVLDEFREKLNEELEALKQS6HLK) [CONS[S6H^20]] | 236000 |  |
| Ac-PVLDEFREKLNEAL[Gla]ALKQKLK (not fully specified (C-terminus)) [GLA15/ALA13] | 234000 |  |
| Ac-P[dGly(6-heptenyl)]LDEFREKLNEELEALKQKLK (not fully specified (C-terminus)) [CONS[R7H^2]] |  | ABCA1-dependent cholesterol efflux, % at 100 uM: 6.3% |
| Ac-PVLDE[Ala(5-hexenyl)]REKLNEELEALKQKLK [CONS[S7H^6]] |  | ABCA1-dependent cholesterol efflux, % at 100 uM: 4% |
| Ac-PVLDE[S7H3]REKLNE[S7H3]LEALKQKLK (not fully specified (C-terminus); printed as PVLDES7H3REKLNES7H3LEALKQKLK) [CONS[S7H3^6,13]] | 300 |  |
| Ac-PVLDEFREKLNE[dGly(6-heptenyl)]LEALKQKLK (not fully specified (C-terminus)) [CONS[R7H^13]] | 7200 |  |
| Ac-PVLDEFRE[R5H]LNE[R5H]LEALKQKLK (staple 9-13; reading uncertain) [R5H [K9-E13]R5H CLOSED RING] | 10000 |  |
| Ac-P[Ala(5-hexenyl)]LDEFREKLNE[Ala(5-hexenyl)]LEALKQKLK [CONS[S7H^2,13]] | 300 |  |
| Ac-PVLDEFREKLNEELEALKQ[dGly(6-heptenyl)]LK (not fully specified (C-terminus); printed as PVLDEFREKLNEELEALKQR7HLK) [CONS[R7H^20]] |  | ABCA1-dependent cholesterol efflux, % at 100 uM: 1.4% |
| Ac-PVLDE[S8H3]REKLNE[S8H3]LEALKQKLK (reading uncertain) [CONS[S8H3^6,13]] | 600 |  |
| Ac-PVLDEFREKLNE[R5H]LEA[R5H]KQKLK (staple 13-17; reading uncertain) [R5H [E13-L17]R5H CLOSED RING] |  | ABCA1-dependent cholesterol efflux, % at 30 uM: < 2% |
| Ac-PVLDEFRE[Ala(5-hexenyl)]LNEELEALKQKLK [CONS[S7H^9]] |  | ABCA1-dependent cholesterol efflux, % at 100 uM: 1.4% |
| Ac-P[Ala(5-hexenyl)]LDEFREKLNE[Ala(5-hexenyl)]LEALKQ[Ala(5-hexenyl)]LK [CONS[S7H^2,13,20]] | 3200 |  |
| Ac-PVLDE[Ala(E-styryl)]REKLNE[Ala(5-hexenyl)]LEALKQKLK [CON[(S)STYRA^6, S7H^13]] | 200 |  |
| Ac-PVLDEFR[Gla]KLNE[Ala(5-hexenyl)]LEALKQKLK (not fully specified (C-terminus)) [CONS[GLA^8, S7H^13]] | 900 |  |
| Ac-PVLDEFKEKLNE[Ala(5-hexenyl)]LEALKQKLK (not fully specified (C-terminus)) [CONS[K^7, S7H^13]] | 1300 |  |
| Ac-PVLDEFREKLNE[dNle(6-ylidene)]LEALKQKLK (not fully specified (C-terminus)) [CONS[R5H^13]] |  | ABCA1-dependent cholesterol efflux, % at 100 uM: 6.2% |
| Ac-PVLDEFREKLNE[S7H3]LEALKQKLK (not fully specified (C-terminus); printed as PVLDEFREKLNES7H3LEALKQKLK) [CONS[S7H3^13]] | 600 |  |
| Ac-P[S6H]LDEFREKLNEELEALKQKLK (not fully specified (C-terminus)) [CONS[S6H^2]] |  | ABCA1-dependent cholesterol efflux, % at 100 uM: 1% |

| Binder | ABCA1-dependent cholesterol efflux EC50 [nM] | also measured |
| --- | --- | --- |
| Ac-PVLEE[Ala(5-hexenyl)]REKLQE[Ala(5-hexenyl)]LEALKQKLK (not fully specified (C-terminus)) [CONS[E^4, S7H^6,13, Q^11]] | 700 |  |
| Ac-PVLDE[dGly(6-heptenyl)]REKLNE[Ala(5-hexenyl)]LEALKQ[Ala(5-hexenyl)]LK (not fully specified (C-terminus); printed as PVLDER7HREKLNES7HLEALKQS7HLK) [CONS[R7H^6, S7H^13,20]] | 100 |  |
| Ac-PVLDEFREKLNE[Aib]LEALKQKLK (not fully specified (C-terminus)) [AIB13] |  | ABCA1-dependent cholesterol efflux, % at 100 uM: 6% |
| Ac-PVLDEFR[Gla]KLNE[Aib]LEALKQKLK (not fully specified (C-terminus)) [GLA8/AIB13] | 44000 |  |
| Ac-PVLEEFREKLQE[S8H3]LEALKQKLK (not fully specified (C-terminus); printed as PVLEEFREKLQES8H3LEALKQKLK; reading uncertain; also: calls X13 alkenyl side chain-substituted amino acid) [CONS[E^4, Q^11, S8H3^13,]] | 200 |  |
| Ac-PVLDE[Gly(oct-7-en-1-yl)]REKLNE[Gly(oct-7-en-1-yl)]LEALKQKLK [CONS[S8H^6,13]] | 400 |  |
| PXLDEFREKLNEXLXALKQXLK (not fully specified; N-terminal acetyl (Ac-Pro); S7H at 2, 13 and 20; Gla at 15) [CONS[GLA^15, S7H^2,13,20]] | 7700 |  |
| Ac-PVLDEFREKLNE[Ala(E-styryl)]LEALKQKLK (not fully specified (C-terminus)) [CONS[(S)STYRA^13]] | 1000 |  |
| Ac-PVLDEFREKLNE[Ala(5-hexenyl)]L[Gla]ALKQKLK [CONS[S7H^13, GLA^15]] | 700 |  |
| Ac-PVLDEFREKLNE[Leu(5,5,5,5',5',5'-F6)]LEALKQKLK (not fully specified (C-terminus)) [CONS[HF-LEU^,13]] | 1100 |  |
| PVLDEXREKLNEXLXALKQXLK (not fully specified; N-terminal acetyl (Ac-Pro); S7H at 6, 13 and 20; Gla at 15) [CONS[GLA^15, S7H^6,13,20]] | 500 |  |
| Ac-PVLDEFREK[Ala(5-hexenyl)]NEELEALKQKLK [CONS[S7H^10]] |  | ABCA1-dependent cholesterol efflux, % at 100 uM: 1.4% |
| Ac-PVLDEFREKLNE[Aib]L[Gla]ALKQKLK (not fully specified (C-terminus)) [GLA15/AIB13] | 41000 |  |
| Ac-P[Ala(5-hexenyl)]LDE[Ala(5-hexenyl)]REKLNE[Ala(5-hexenyl)]LEALKQKLK [CONS[S7H^2,6,13]] | 100 |  |
| Ac-PVLDE[Ala(5-hexenyl)]REKLNE[Ala(5-hexenyl)]LEALKQ[Ala(5-hexenyl)]LK [CONS[S7H^6,13,20]] | 200 |  |
| Ac-PVLDEFREKLNE[dStyrA]LEALKQKLK (not fully specified (C-terminus)) [CONS[(R)STYRA^13]] | 22000 |  |
| Ac-PVLDEFR[Gla]KLNEALEALKQKLK (not fully specified (C-terminus)) [GLA8/ALA13] | 142000 |  |
| Ac-PVLDEFREKLNE[Gly(oct-7-en-1-yl)]LEALKQKLK [CONS[S8H^13]] | 600 |  |
| Ac-PVLDE[Ala(5-hexenyl)]REKLNE[Ala(5-hexenyl)]LEALKQKLK [CONS[S7H^6,13]] | 300 |  |
| Ac-PVLDEFREKLNE[S6H]LEALKQKLK (not fully specified (C-terminus)) [CONS[S6H^13]] | 1400 |  |
| Ac-PVLDEFREKLNEELEA[Ala(5-hexenyl)]KQKLK [CONS[S7H^17]] |  | ABCA1-dependent cholesterol efflux, % at 100 uM: 1% |
| Ac-PVLEEFREKLQE[Gly(oct-7-en-1-yl)]LEALKQKLK (not fully specified (C-terminus)) [CONS[E^4, Q^11, S8H^13]] | 300 |  |
